Measurements reported in patent publication US20210230266A1 (SINGAPORE HEALTH SERVICES PTE, published 2021).
Numbering of substitutions follows the chain as printed. Each block holds one binder with its values, some of them ahead of it.

Legend:
[1] = target: T1, Human IL-11 (human, UniProt P20809 22-199); test: ELISA
T1 construct: Recombinant human IL-11 (GenScript Cat. No. Z03108-1) or IL-11 secreted by human cells; the mature form is said to have 178 residues; also called recombinant human IL-11; endogenously produced IL-11
T1 sequence: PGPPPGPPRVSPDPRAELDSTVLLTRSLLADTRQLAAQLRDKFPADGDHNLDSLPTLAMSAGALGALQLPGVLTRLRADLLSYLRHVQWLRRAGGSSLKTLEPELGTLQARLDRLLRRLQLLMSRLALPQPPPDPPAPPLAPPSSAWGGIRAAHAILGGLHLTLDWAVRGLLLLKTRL
Method: (§1) The soluble scFv were produced by recombinant expression in E. coli, and analysed for their ability to bind to human IL-11 and murine IL-11 by ELISA. Briefly, the respective antigen was coated to wells of an ELISA plate, the cell culture supernatant containing the respective scFv was added at a 1:2 dilution, and binding was detected.

[2] = target: T2, Mouse IL-11 (mouse, UniProt P47873 22-199, limits assumed); test: ELISA
T2 construct: also called murine IL-11; recombinant murine IL-11
T2 sequence (looked up): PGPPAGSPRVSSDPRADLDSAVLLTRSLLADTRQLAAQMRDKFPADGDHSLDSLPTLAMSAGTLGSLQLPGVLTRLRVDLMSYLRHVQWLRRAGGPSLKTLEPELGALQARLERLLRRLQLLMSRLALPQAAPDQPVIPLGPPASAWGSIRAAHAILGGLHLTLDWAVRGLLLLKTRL
Method: as §1

[3] = target: T1, Human IL-11; test: cell-based or functional assay
[4] = target: T1, Human IL-11; test: ELISA on coated recombinant human IL-11 (100 ng/well), scFv-Fc
Method: The light chain shuffled anti-IL-11 antibodies were analysed to determine the EC50 for binding to human IL-11 by ELISA according to standard methods. Briefly, wells of microtiter plates were coated with recombinant human IL-11 (100 ng/well), scFv-Fc comprising the VH and VL domains of the clones were added in a dilution series and antibody binding was detected using a polyclonal antibody detection system.

- hIL11 - average signal [1]: 0.319
- mIL11 - average signal [2]: 0.395
- MMP2 production, Experiment 1 (human atrial fibroblasts + TGFB1) [3]: 44.5 ng/mL
- MMP2 production, Experiment 2 (human atrial fibroblasts + TGFB1) [3]: 37.6 ng/mL
- EC50 [4]: 0.027 µg/mL
B1: YU100-F11 (antibody, V domains shown)
VH: QVQLVESGGGVVQPGRSLRLSCAASGFTFSSYGMHWVRQAPGKGLEWVAVISYDGSNKYYADSVKGRFTISRDNSKNTLYLQMNSLRAEDTAVYYCAKIGATDPLDYWGQGTLVTVSS
VL: QSALTQPASVSGSPGQSITISCTGSSSDVAGYNYVSWYQQHPGKAPKLMIYDVTKRPSGVPDRFSGSKSGNTASLTISGLQAEDEADYYCCSYAGSYTWVFGGGTQLTVLG
notes: light chain-shuffled human anti-IL-11 clone

- hIL11 - average signal [1]: 0.21
- mIL11 - average signal [2]: 0.293
B2: YU100-B09 (antibody, V domains shown)
VH: B1 VH with E6Q

- hIL11 - average signal [1]: 0.193
- mIL11 - average signal [2]: 0.247
- MMP2 production, Experiment 1 (human atrial fibroblasts + TGFB1) [3]: 52.1 ng/mL
- MMP2 production, Experiment 2 (human atrial fibroblasts + TGFB1) [3]: 46.5 ng/mL
- EC50 [4]: 0.023 µg/mL
B3: YU100-E07 (antibody)
chain: QVQLQESGGGVVQPGRSLRLSCAASGFTFSSYGMHWVRQAPGKGLEWVAVISYDGSNRYYADSVKGRFAISRDNSKNTLYLQMNSLRAEDTAVYYCAKIGATDPLDYWGQGTLVTVSSGSASAPKLEEGEFSEARVQSALTQPRSVSGSPGQSVTISCTGTSSDVGGYDYVSWYQQHPGKAPELMIYDVTKRPSGVADRFSGSKSGNTASLTISGLQAEDEADYYCCSYAGRYTWVFGGGTKLTVL

- hIL11 - average signal [1]: 0.262
- mIL11 - average signal [2]: 0.404
- MMP2 production, Experiment 1 (human atrial fibroblasts + TGFB1) [3]: 54 ng/mL
- MMP2 production, Experiment 2 (human atrial fibroblasts + TGFB1) [3]: 45.4 ng/mL
- EC50 [4]: 0.034 µg/mL
B4: YU100-G10 (antibody)
chain: QVQLVQSGGGVVQPGRSLRLSCAASGFTFSSYGMHWVRQAPGKGLEWVAVISYDGSNKYYADSVKGRFTISRDNSKNTLYLQMNSLRAEDTAVYYCAKIGATDPLDYWGQGTLVTVSSGSASAPKLEEGEFSEARVQSALTQPASVSGSLGQSITMSCTGTRRDVGGYDFVSWYQQYPGKAPKLIIYDVSNRPSGVSNRFTGSKSGNTASLTISGLQAEDEADYYCCSYAGTYTWVFGGGTKVTVL

- hIL11 - average signal [1]: 0.16
- mIL11 - average signal [2]: 0.481
B5: YU100-F06 (antibody)
chain: QVQLVESGGGVVQPGRSLRLSCAASGFTFSSYGMHWVRQAPGKGLEWVAVISYDGSNKYYADSVKGRFTISRDNSKNTLYLQMNSLRAEDTAVYYCARIMGYDYGDYDVVDYWGQGTLVTVSSGSASAPKLEEGEFSEARVQSALTQPRSVSGSPGQSVTISCTGSSSDVGGYNFVSWYRQHPGEAPKLVIFDVNKRPSGVPDRFSGSKSGNTASLTISGLQTEDEADYFCCSYAGGYTWVFGGGTKVTVV

- hIL11 - average signal [1]: 0.338
- mIL11 - average signal [2]: 0.297
- MMP2 production, Experiment 1 (human atrial fibroblasts + TGFB1) [3]: 56.1 ng/mL
- MMP2 production, Experiment 2 (human atrial fibroblasts + TGFB1) [3]: 47 ng/mL
- EC50 [4]: 0.033 µg/mL
B6: YU100-E10 (antibody)
chain: QVQLVQSGGGVVQPGRSLRLSCAASGFTFSSYGMHWVRQAPGKGLEWVAVISYDGSNKYYADSVKGRFTISRDNSKNTLYLQMNSLRAEDTAVYYCAKIGATDPLDYWGQGTLVTVSSGSASAPKLEEGEFSEARVQSALTQPRSVSGSPGQSVTISCTGTSSDVGGYNYVSWYQQHPGKAPKLMIFDVSQRPSGVPDRFSASKSGNTASLTISGLQAEDEADYYCCSYAGSYTWVFGGGTKLTVL

- hIL11 - average signal [1]: 0.304
- mIL11 - average signal [2]: 0.542
B7: YU100-F05 (antibody)
chain: QVQLQQSGGGVVQPGRSLRLSCAASGFTFSSYGMHWVRQAPGKGLEWVAVISYDGSNKYYADSVKGRFTISRDNSKNTLYLQMNSLRAEDTAVYYCAKIGATDPLDYWGQGTLVTVSSGSASAPKLEEGEFSEARVQAVLTQPASVSGSPGQSITISCTGTSSDIGGYNYVSWYQQHPGTAPKLMIYDVSSRPSGVSNRFSGSKSGNTASLTISGLQAEDEADYYCCSYAGSYTWVFGGGTKMTVL

- hIL11 - average signal [1]: 0.172
- mIL11 - average signal [2]: 0.148
- MMP2 production, Experiment 1 (human atrial fibroblasts + TGFB1) [3]: 53.1 ng/mL
- MMP2 production, Experiment 2 (human atrial fibroblasts + TGFB1) [3]: 46.6 ng/mL
- EC50 [4]: 0.041 µg/mL
B8: YU100-F07 (antibody)
chain: QVQLVESGGGVVQPGRSLRLSCAASGFTFSSYAMHWVRQAPGKGLEWVAVISYDGSNKYYADSVKGRFTISRDNSKNTLYLQMNSLRAEDTAVYYCARIMGYDYGDYDVVDYWGQGTLVTVSSGSASAPKLEEGEFSEARVQSALTQPRSVSVSPGQSVTISCTGTSSDVGGYEYVSWYQQHPGKAPKLMIYDVTKRPSGVPDRFSGSKSGNTASLTISGLQGEDAADYYCCSYAGSYTWVFGGGTTVTVL

- hIL11 - average signal [1]: 0.214
- mIL11 - average signal [2]: 0.251
- MMP2 production, Experiment 1 (human atrial fibroblasts + TGFB1) [3]: 48.2 ng/mL
- MMP2 production, Experiment 2 (human atrial fibroblasts + TGFB1) [3]: 59.7 ng/mL
- EC50 [4]: 0.032 µg/mL
B9: YU100-E08 (antibody)
chain: QVQLVQSGGGVVQPGRSLRLSCAASGFTFSSYAMHWVRQAPGKGLEWVAVISYDGSNKYYADSVKGRFTISRDNSKNTLYLQMNSLRAEDTAVYYCARIMGYDYGDYDVVDYWGQGTLVTVSSGSASAPKLEEGEFSEARVQSALTQPRSVSGSPGQSVTISCTGTSSDVGGYNYVSWYQQHPGKAPKLMIYDVSRRPSGVPDRFSGSKSGNTASLTISGLQAEDEADYYCCSYAGNYTWMFGGGTKLTVL

- hIL11 - average signal [1]: 0.224
- mIL11 - average signal [2]: 0.335
- MMP2 production, Experiment 1 (human atrial fibroblasts + TGFB1) [3]: 51.7 ng/mL
- MMP2 production, Experiment 2 (human atrial fibroblasts + TGFB1) [3]: 44.4 ng/mL
- EC50 [4]: 0.019 µg/mL
B10: YU100-E09 (antibody)
chain: B8 chain with V153G, G172D, E174D, M190I, V201I, G223A, A226E, G244R, T247K, V248L

- hIL11 - average signal [1]: 0.498
- mIL11 - average signal [2]: 0.507
B11: YU100-G11 (antibody)
chain: B5 chain with S166T, F175Y, R180Q, E185K, V190T, I191L, F192Y, N195G, T223A, F230Y

- hIL11 - average signal [1]: 0.268
- mIL11 - average signal [2]: 0.435
- MMP2 production, Experiment 1 (human atrial fibroblasts + TGFB1) [3]: 49.1 ng/mL
- MMP2 production, Experiment 2 (human atrial fibroblasts + TGFB1) [3]: 41.9 ng/mL
- EC50 [4]: 0.028 µg/mL
B12: YU100-E11 (antibody)
chain: B9 chain with Q6E, A33G, R196K, N237S, M241V

- hIL11 - average signal [1]: 0.246
- mIL11 - average signal [2]: 0.322
B13: YU100-D07 (antibody)
chain: QVQLVESGGGVVQPGRSLRLSCAASGFTFSSYAMHWVRQAPGKGLEWVAVISYDGSNKYYADSVKGRLTISRDNSKNTLYLQMNSLRAEDTAVYYCARIMGYDYGDYDVVDYWGQGTLVTVSSGSASAPKLEEGEFSEARVQSALTQPRSVSGSPGQSVTISCTGTSGDVGTYDYVSWYQQHPGKAPKLMIYDVSKRPSGVPDRFSGSKSGNTASLTISGLQAEDEADYYCNSYAGSYTWVFGGGTKLTVLGQPKTAPSVTLFPPSS

- hIL11 - average signal [1]: 0.528
- mIL11 - average signal [2]: 0.794
- MMP2 production, Experiment 1 (human atrial fibroblasts + TGFB1) [3]: 47.6 ng/mL
- MMP2 production, Experiment 2 (human atrial fibroblasts + TGFB1) [3]: 43.8 ng/mL
B14: YU112-G01 (antibody)
chain: QVQLVESGGGVVQPGRSLRLSCAASGFTFSSYGMHWVRQAPGKGLEWVAVISYDGSNKYYADSVKGRFTISRDNSKNTLYLQMNSLRAEDTAVYYCAKLSGPNGVDYWGQGTLVTVSSGSASAPKLEEGEFSEARVQSALTQPRSVSGSPGQSVTISCTGTISDVGGYNYVSWYQQHPGKAPKLMIYDVTKRPSGVPDRFSGSKSGNTASLTISGLQAEDEAGYYCSSYAGSYTWVFGGGTELTVL

- hIL11 - average signal [1]: 0.593
- mIL11 - average signal [2]: 0.898
B15: YU112-C09 (antibody)
chain: QVQLVQSGGGVVQPGRSLRLSCAASGFTFGSYGMHWVRQAPGKGLEWVAVISYDGSNKYYADSVKGRFTISRDNSKNTLYLQMNSLRAEDTAVYYCAKGSYYFDYWGQGTLVTVSSGSASAPKLEEGEFSEARVETTLTQSPATLSVSPGERATLSCRASQSFSSSYLAWYQQKPGQAPRLLIYGASRRAPGIPDRFSGSGSGTDFSLTISRLEPEDFAVYYCQQSSTSPTWAFGRGTKVEVK
